Test results from US20220363766A1, “COMPOSITIONS AND METHODS FOR TREATING CYTOTOXIC T CELL RESISTANT TUMORS” (Dana-Farber Cancer Institute, Inc., priority 2019, published 2022).
Entries after “also recorded” stand apart in the source; their conditions may differ.

Columns and labels:
human NK cells = experiment: Characterization of human NK cells in tumor-free NSG mice; format: in vivo; settings: 10 mg/kg, 24 hours later, blood
Method: (§1) Tumor-free NSG mice were inoculated intravenously with 2×10^6 human NK cells that were expanded in vitro as described above. At the same time, mice also received intraperitoneal injections of IL-2 (7.5×10^4) as well as panobinostat (10 mg/kg) or PBS as the solvent control. One day later, blood was collected via eye bleeding, and human NK cells were analyzed by flow cytometry.
as §1, with “(7.5×10^4, Peprotech)” for “(7.5×10^4)”

MICA/B = MICA/B shedding assays in A375 melanoma cells (shed MICA ELISA, MICA/B surface levels by flow cytometry); format: cell-based; settings: control and B2M-KO A375 cells, 24 hours, vs isotype control
Method: 5×10^4 tumor cells were cultured for 24 hours in 96-wells plates (flat-bottom for adherent cells or U-bottom for suspension cells) in the presence of different concentrations of antibodies, IFNγ, and/or panobinostat (ApexBio, catalog number A8178), as indicated in each figure. Following a 24-hour culture period, plates were centrifuged for 5 minutes at 500× g, and supernatants were collected for analysis of shed MICA using the Human MICA ELISA Kit (Abcam, catalog number ab59569).
Adherent cells were detached with Versene (Gibco, catalog number 15040-066) to preserve the integrity of MICA/B proteins on the cell surface. Fc receptors were blocked using Human TruStain FcX™ (Biolegend, catalog number 422302), and cells were stained with PE or APC-conjugated anti-human MICA/B clone 6D4 (Biolegend, catalog numbers 320906 or 320908, respectively). […] Data were acquired using a BD Fortessa X20 or Beckman Coulter CytoFLEX LX, and analyses were performed using FlowJo V10 software.
5×10^4 tumor cells were cultured for 24 hours in 96-wells plates (flat-bottom for adherent cells or U-bottom for suspension cells) in the presence of different concentrations of antibodies, IFNγ, and/or panobinostat (ApexBio, catalog number A8178), as indicated in each figure. […]

A375 melanoma cells = experiment: Long-term NK cell-mediated killing assay (image cytometry of GFP+ tumor cells); format: cell-based; settings: mAb 20 μg/ml pretreatment 24 hours, human NK cells, IL-2 300 U/ml, 72-hour period
Method: (§2) For long-term NK cell-mediated killing assays, GFP^+ control and B2M-KO A375 cells were pretreated for 24 hours with MICA/B or isotype control mAbs (20 μg/ml) in tissue culture media. Subsequently, tumor cells were detached with Versene, washed with PBS, and plated in black-wall 96-well plates (Corning™, catalog number 3603) at a density of 5×10^3 cells per well. Human NK cells were added 1-2 hours later at different effector to target ratios as indicated in the figures, and IL-2 (300 U/ml) was added to support NK cell survival. The number of GFP^+ tumor cells was tracked over time using a Celigo Image Cytometer (Nexcelom Bioscience, Lawrence, USA), as reported previously.^40
as §2, with “U/ml, BD Biosciences)” for “U/ml)”, “previously (33).” for “previously.^40”

| Molecule | impact on human NK cells transferred to NSG mice (circulating NK cells, CD16a or NKG2D positive NK cells) (human NK cells) | MICA shedding (shed MICA, sandwich ELISA) (MICA/B) | surface levels of MICA/B (flow cytometry) (MICA/B) | efficacy in NK cell-mediated killing, B2M-KO vs control A375 cells (A375 melanoma cells) |
| --- | --- | --- | --- | --- |
| Cc1[nH]c2ccccc2c1CCNCc1ccc(/C=C/C(=O)NO)cc1 [panobinostat] | did not negatively impact human NK cells; also recorded: did not inhibit reconstitution of NSG mice with human NK cells | – | – | – |
| 7C6-hIgG1: MICA/B α3 domain specific mAb, clone 7C6 with human IgG1 Fc (antibody, V domains shown) VH: QIQLVQSGPELKKPGETVKVSCKASGYMFTNYAMNWVKQAPEKGLKWMGWINTHTGDPTYADDFKGRIAFSLETSASTAYLQINNLKNEDTATYFCVRTYGNYAMDYWGQGTSVTVSS VL: DIQMTQTTSSLSASLGDRVTISCSASQDISNYLNWYQQKPDGTVKLLIYDTSILHLGVPSRFSGSGSGTDYSLTISNLEPEDIATYYCQQYSKFPRTFGGGTTLEIK | – | inhibited MICA shedding | increased surface levels of MICA/B | substantially more effective against B2M-KO compared to control A375 melanoma cells |
